For assay [1], the target named is T1, recombinant human CTGF-Fc protein (Creative Biomart) (human).
T1 construct: Bought; also called human CTGF with a human IgG1 Fc Tag
The assay can be described thus: SPR (Biacore); B = binding without determination of kinetics constants. The method, then: The binding of exemplary lipocalin muteins to human (Creative Biomart), cynomolgus, rat (R&D Systems) and mouse CTGF (Abbexa) was determined by SPR using a Biacore instrument (Cytiva, formerly GE Healthcare). Some targets were fused to a human IgG1 Fc tag, and captured via the anti-human IgG antibody kit, others were directly immobilized.
For some measurements, human CTGF with a human IgG1 Fc Tag or rat or murine CTGF without a tag were directly immobilized to a CM5 Chip. The carboxyl groups on the chip were activated using 1-ethyl-3-(3-dimethylaminopropyl)-carbodiimide (EDC) and N-hydroxysuccinimide (NHS). […] Residual non-reacted NHS-esters were blocked by passing a solution of 1 M ethanolamine across the surface. The reference channel was activated/deactivated. For the capture setting, targets with an IgG Fc Tag at 0.25-2.5 μg/mL in HBS-EP+ buffer were captured by the anti-human IgG-Fc antibody at the chip surface for 180 s at a flow rate of 10 μL/min.
The binding assay was carried out with a contact time of 180 s, a dissociation time of 900-3600 s and a flow rate of 30 μL/min. All measurements were performed at 25° C. […] For the directly immobilized targets, the same regeneration conditions were used. Prior to the protein measurements, three startup cycles were performed for conditioning purposes.
(SPR reads the build-up and loss of mass on a sensor chip optically.)

Assay [2] addresses T2, recombinant human CTGF protein (R&D Systems, SEQ ID NO: 79) (human, UniProt P29279 27-349).
T2 construct: Bought; also called human CTGF/CNN2; huCTGF
T2 sequence: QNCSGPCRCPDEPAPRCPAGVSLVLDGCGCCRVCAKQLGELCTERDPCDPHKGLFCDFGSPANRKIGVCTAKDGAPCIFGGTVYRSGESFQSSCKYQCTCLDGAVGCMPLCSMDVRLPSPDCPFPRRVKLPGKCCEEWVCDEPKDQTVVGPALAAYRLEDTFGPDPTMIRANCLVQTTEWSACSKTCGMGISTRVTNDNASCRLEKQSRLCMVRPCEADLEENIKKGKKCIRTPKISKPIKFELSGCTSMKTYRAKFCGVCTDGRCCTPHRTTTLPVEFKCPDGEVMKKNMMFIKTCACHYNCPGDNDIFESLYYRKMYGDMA
Put plainly: ELISA, coated human CTGF. The method, then: (§1) Binding of fusion proteins was tested by an ELISA assay. In detail, a 384-well plate suitable for fluorescence measurements (Greiner FLUOTRAC™ 600, black flat bottom, high-binding) was coated with 20 μl of human CTGF (R&D Systems) at a concentration of 1 μg/ml in PBS over night at 4° C. After washing with PBS with 0.05% Tween 20, wells were blocked with 100 μl blocking buffer containing 0.1% Tween 20 and 2% BSA (PBS-T/BSA) for 1 h at room temperature. 20 μl of serially diluted muteins were incubated in PBS-T/BSA for 1 h at room temperature (RT).
The residual supernatants were discarded and 20 μl HRP-labeled anti-NGAL or anti-His-Tag antibody was added at a predetermined optimal concentration in PBS-T/BSA and incubated for 1 h at RT. After washing, 20 μl fluorogenic HRP substrate (QuantaBlu, Thermo) was added to each well, and the reaction was allowed to proceed for 2 to 60 minutes. The fluorescence intensity of every well on the plate was read using a fluorescence microplate reader (Tecan). Curve fitting was performed using GraphPad Prism 7 or 8 software.

The target in another assay is T3, huCYR61 (human, UniProt O00622 25-381, limits assumed).
T3 construct: also called human CYR61 (CCN1)
T3 sequence (looked up): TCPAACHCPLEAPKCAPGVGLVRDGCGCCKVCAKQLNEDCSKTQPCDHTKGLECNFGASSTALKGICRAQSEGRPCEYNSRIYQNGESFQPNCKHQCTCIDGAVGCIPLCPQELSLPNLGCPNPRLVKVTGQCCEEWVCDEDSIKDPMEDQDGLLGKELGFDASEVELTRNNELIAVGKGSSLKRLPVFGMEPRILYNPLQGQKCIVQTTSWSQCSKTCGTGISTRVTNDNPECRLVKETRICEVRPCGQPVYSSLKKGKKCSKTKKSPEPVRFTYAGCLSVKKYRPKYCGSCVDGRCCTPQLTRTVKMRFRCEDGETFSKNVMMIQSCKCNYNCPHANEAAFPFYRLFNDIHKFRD
Put plainly: ELISA, coated CCN protein. The method, then: as §1, with “muteins to closely related” for “fusion”, “proteins of CTGF” for “proteins”, “or the other members of the CCN protein family” for “(R&D Systems)”, “muteins starting at 1000 nM” for “muteins”
(§2) The residual supernatants were discarded and 20 μl HRP-labeled anti-NGAL or anti-Strep-Tag antibody was added at a predetermined optimal concentration in PBS-T/BSA and incubated for 1 h at RT. After washing, 20 μl fluorogenic HRP substrate (QuantaBlu, Thermo) was added to each well, and the reaction was allowed to proceed for 2 to 60 minutes. The fluorescence intensity of every well on the plate was read using a fluorescence microplate reader (Tecan). When the signal for human CTGF approached saturation, the cross reactivity to the other proteins was assessed.

Another assay addresses T4, huNOV (human, UniProt P48745 32-357, limits assumed).
T4 construct: also called human NOV (CCN3)
T4 sequence (looked up): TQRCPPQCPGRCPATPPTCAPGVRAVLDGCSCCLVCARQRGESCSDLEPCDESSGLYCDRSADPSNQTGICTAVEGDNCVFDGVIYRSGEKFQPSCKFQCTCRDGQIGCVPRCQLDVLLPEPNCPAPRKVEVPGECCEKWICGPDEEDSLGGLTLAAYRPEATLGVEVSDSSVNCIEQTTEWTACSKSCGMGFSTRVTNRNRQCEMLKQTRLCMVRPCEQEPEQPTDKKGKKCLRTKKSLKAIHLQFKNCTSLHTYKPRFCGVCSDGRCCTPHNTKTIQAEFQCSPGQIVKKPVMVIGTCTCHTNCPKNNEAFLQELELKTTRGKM
The assay can be described thus: ELISA, coated CCN protein. The method, then:
as §1, with “muteins to closely related” for “fusion”, “proteins of CTGF” for “proteins”, “or the other members of the CCN protein family” for “(R&D Systems)”, “muteins starting at 1000 nM” for “muteins”
as §2

A further assay addresses T5, huWISP-1 (human, UniProt O95388 23-367, limits assumed).
T5 construct: also called human WISP-1 (CCN4)
T5 sequence (looked up): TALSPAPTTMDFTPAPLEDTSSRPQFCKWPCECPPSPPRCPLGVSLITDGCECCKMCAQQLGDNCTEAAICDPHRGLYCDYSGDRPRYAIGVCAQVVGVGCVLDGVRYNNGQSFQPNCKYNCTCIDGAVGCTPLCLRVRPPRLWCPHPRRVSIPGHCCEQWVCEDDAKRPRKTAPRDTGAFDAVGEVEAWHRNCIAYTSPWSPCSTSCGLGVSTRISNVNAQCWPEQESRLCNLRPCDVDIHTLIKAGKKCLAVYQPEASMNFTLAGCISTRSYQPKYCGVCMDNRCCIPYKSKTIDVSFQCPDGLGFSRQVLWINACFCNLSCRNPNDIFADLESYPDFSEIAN
The assay can be described thus: ELISA, coated CCN protein. The method, then: as §1, with “muteins to closely related” for “fusion”, “proteins of CTGF” for “proteins”, “or the other members of the CCN protein family” for “(R&D Systems)”, “muteins starting at 1000 nM” for “muteins”
as §2
On the technique in general: In an ELISA, binding on a coated surface is turned into a signal by an enzyme label.

The next assay deals with T6, huWISP-2 (human, UniProt O76076 24-250, limits assumed).
T6 construct: also called human WISP-2 (CCN5)
T6 sequence (looked up): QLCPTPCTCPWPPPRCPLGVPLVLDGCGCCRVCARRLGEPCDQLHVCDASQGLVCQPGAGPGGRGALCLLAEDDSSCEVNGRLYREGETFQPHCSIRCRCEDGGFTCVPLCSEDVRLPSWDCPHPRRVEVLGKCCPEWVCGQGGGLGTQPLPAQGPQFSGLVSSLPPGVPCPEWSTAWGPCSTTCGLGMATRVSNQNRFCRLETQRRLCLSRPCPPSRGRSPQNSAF
Put plainly: ELISA, coated CCN protein. The method, then:
as §1, with “muteins to closely related” for “fusion”, “proteins of CTGF” for “proteins”, “or the other members of the CCN protein family” for “(R&D Systems)”, “muteins starting at 1000 nM” for “muteins”
as §2

Another assay addresses T7, huWISP-3 (human, UniProt O95389 24-354, limits assumed).
T7 construct: also called human WISP-3 (CCN6)
T7 sequence (looked up): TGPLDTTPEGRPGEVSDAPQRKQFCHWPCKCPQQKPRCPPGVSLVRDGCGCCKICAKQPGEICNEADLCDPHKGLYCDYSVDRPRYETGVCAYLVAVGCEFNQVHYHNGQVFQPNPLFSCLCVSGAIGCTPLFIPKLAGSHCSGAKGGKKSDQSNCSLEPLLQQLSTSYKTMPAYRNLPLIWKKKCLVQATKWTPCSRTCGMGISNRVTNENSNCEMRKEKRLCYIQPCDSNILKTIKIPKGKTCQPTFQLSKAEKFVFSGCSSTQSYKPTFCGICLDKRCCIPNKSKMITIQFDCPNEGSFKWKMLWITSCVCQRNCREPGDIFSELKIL
Put plainly: ELISA, coated CCN protein. The method, then: as §1, with “muteins to closely related” for “fusion”, “proteins of CTGF” for “proteins”, “or the other members of the CCN protein family” for “(R&D Systems)”, “muteins starting at 1000 nM” for “muteins”
as §2

The target in assay [3] is T2, recombinant human CTGF protein (R&D …). Put plainly: HTRF, 1 nM biotinylated human CTGF. The method, then: Binding of some fusion proteins was tested by a Homogeneous Time Resolved Fluorescence (HTRF assay). In detail, 1 nM of biotinylated human CTGF (R&D Systems) was incubated for 1 h with a titration of some lipocalins starting at 5 nM in 384 Flat Bottom White Polystyrol microtiter plate (Greiner). Samples were diluted in PBS containing 0.1% Tween 20 and 2% BSA. As donor, Streptavidin-Terbium at a concentration of 0,006 μg/mL was used, the acceptor was 0.2 μg/mL anti-His-d2 (both CisBio). After another 1 h of incubation, the fluorescence intensity of the donor and acceptor on the plate was read using a fluorescence microplate reader M1000 (Tecan) with the standard settings recommended by CisBio. The calculated ratio of signals was used for the curve fitting performed in GraphPad Prism 7 software.
Background: In TR-FRET formats the signal depends on donor and acceptor labels being close together.

These results are taken from patent US20240228562A1 (Pieris, published 2024).

Changes are numbered by the printed parent chain.

B1: lipocalin mutein of SEQ ID NO: 17 (designed binder)
chain: QDSTSDLIPAPPLSKVPLQQNFQDNQFQGKWYVVGLAGNAILRTDKQPAKMFATIYELKEDKSYDVTSVRFEAKSCVYTSKTFVPGSQPGEFTAGNIKSAPGQTSTLVRVVSTNYNQHAMVFFKHVSQNREFFVITLYGRTKELTSELKENFIRFSKSLGLPENHIVFPVPIDQCIDG
notes: also called hNGAL mutein; not shown: C-terminal His-tag
With B1, the binding result in assay [1] was “binds”.

B2: lipocalin mutein of SEQ ID NO: 20 (designed binder)
chain: B1 chain with T44E, V77S, S80I, F123A, H125A, S127Q, Q128L, F132H, V134F
notes: as for B1
As for B2, the binding result in assay [1] is on record as “binds”.

B3: fusion protein of SEQ ID NO: 74 (designed binder)
chain: QDSTSDLIPAPPLSKVPLQQNFQDNQFQGKWYVVGLAGNAILREDKQPAKMFATIYELKEDKSYDVTSVRFEAKSCKYTIKTFVPGSQPGEFTAGYIKSAPGQTSTLVRVVSTNYNQHAMVFFKHVTQNREIFVITLYGRTKELTSELKENFIRFSKSLGLPENHIVFPVPIDQCIDGGGGGSGGGGSGGGGSQDSTSDLIPAPPLSKVPLQQNFQDNQFQGKWYVVGWAGNVKLREDKQPQKMSATIYELKEDKSYDVTEVVFEQKKCHYIIKTFVPGSQPGEFTAGDIKSPPGYTSSLVRVVSTNYNQHAMVFFKKVSQNREFFWITLYGRTKELTSELKENFIRFSKSLGLPENHIVFPVPIDQCIDG
notes: not shown: C-terminal His-tag
Regarding B3, the concentration for a half-maximal effect (EC50) in assay [2] stood at 0.26 nM; in assay [3], 0.59 nM. The binding result with huCYR61, with huNOV, with huWISP-1, with huWISP-2 and with huWISP-3 was “no binding (tested: dilutions starting at 1000 nM)” in each case.

B4: fusion protein of SEQ ID NO: 76 (designed binder)
chain: B3 chain with Q242L
notes: not shown: C-terminal His-tag
On to B4, for which the figures for the concentration for a half-maximal effect (EC50) in assay [2] and in assay [3] were 0.24 nM and 0.62 nM, respectively. For the same molecule, the binding result with huCYR61, with huNOV, with huWISP-1, in the assay with huWISP-2 and with huWISP-3 was “no binding (tested: dilutions starting at 1000 nM)” in each case.

The term EC50 denotes the midpoint of the concentration-response curve.
